Assay results published in the supplement of paper PMC5998384.

Legend:
HeLa Kyoto [1] = assay: thermal stability score vs G1/S (z-score of summed log2 fold changes over temperatures); higher = more thermally stable than in G1/S
HeLa Kyoto [2] = assay: solubility in G1/S (NP-40 vs SDS abundance) (log2 ratio); higher = more soluble; conditions: cell cycle stage: G1/S
HeLa Kyoto [3] = assay: melting temperature (median over replicates), in situ; higher = more thermally stable
HeLa Kyoto [4] = assay: solubility change mitosis vs G1/S (difference of NP-40 vs SDS log2 ratios) (log2 ratio difference); higher = more soluble in mitosis
[5] = cell cycle stage: early G1 (4.5 h after nocodazole release)
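For melting temperature (median over replicates), in situ in this document: HeLa Kyoto cells synchronized by double thymidine or nocodazole block, proteins quantified by TMT10plex mass spectrometry, three independent biological replicates.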
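For solubility change mitosis vs G1/S (difference of NP-40 vs SDS log2 ratios) in this document: synchronized HeLa Kyoto cells (double thymidine block for G1/S, nocodazole release for mitosis), protein amounts in NP-40 versus SDS lysates quantified by mass spectrometry, three biological replicates.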
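For solubility in G1/S (NP-40 vs SDS abundance) in this document: HeLa Kyoto cells arrested at G1/S by double thymidine block, proteins quantified by TMT10plex mass spectrometry in mild NP-40 versus SDS extracts, three biological replicates.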
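For thermal stability score vs G1/S (z-score of summed log2 fold changes over temperatures) in this document: synchronized HeLa Kyoto cells, proteins quantified by TMT10plex mass spectrometry, three biological replicates, mitosis taken 0.5 h after nocodazole release, G1/S directly after double thymidine block.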

AFG3L2, sequence (chain, as listed by the source): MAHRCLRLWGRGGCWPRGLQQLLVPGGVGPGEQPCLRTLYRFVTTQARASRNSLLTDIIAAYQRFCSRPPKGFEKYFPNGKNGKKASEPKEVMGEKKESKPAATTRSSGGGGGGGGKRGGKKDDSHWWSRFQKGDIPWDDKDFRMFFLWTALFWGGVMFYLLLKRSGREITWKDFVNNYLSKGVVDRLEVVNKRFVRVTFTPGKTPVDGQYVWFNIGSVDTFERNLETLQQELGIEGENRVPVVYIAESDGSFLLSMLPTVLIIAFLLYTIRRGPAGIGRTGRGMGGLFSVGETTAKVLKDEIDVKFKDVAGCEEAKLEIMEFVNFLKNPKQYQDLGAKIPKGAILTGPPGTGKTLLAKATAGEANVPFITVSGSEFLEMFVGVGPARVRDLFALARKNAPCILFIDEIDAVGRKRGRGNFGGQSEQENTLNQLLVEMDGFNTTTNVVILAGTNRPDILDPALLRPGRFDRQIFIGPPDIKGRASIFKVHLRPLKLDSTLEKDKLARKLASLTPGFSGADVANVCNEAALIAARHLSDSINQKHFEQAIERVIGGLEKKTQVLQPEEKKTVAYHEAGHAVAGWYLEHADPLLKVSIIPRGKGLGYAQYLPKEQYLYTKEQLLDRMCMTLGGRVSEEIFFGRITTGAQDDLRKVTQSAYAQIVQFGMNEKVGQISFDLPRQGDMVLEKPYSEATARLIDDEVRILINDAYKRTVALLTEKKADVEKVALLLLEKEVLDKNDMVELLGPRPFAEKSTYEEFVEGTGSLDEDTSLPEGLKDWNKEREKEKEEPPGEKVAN

Substance	thermal stability score (HeLa Kyoto [1]; [5])	thermal stability score (HeLa Kyoto [1]; cell cycle stage: mitosis)	solubility in G1/S (log2) (HeLa Kyoto [2])	melting temperature (HeLa Kyoto [3]; cell cycle stage: G1/S)	melting temperature (HeLa Kyoto [3]; cell cycle stage: mitosis)	solubility change mitosis (log2) (HeLa Kyoto [4])
MATAAYEQLKLHITPEKFYVEACDDGADDVLTIDRVSTEVTLAVKKDVPPSAVTRPIFGILGTIHLVAGNYLIVITKKIKVGEFFSHVVWKATDFDVLSYKKTMLHLTDIQLQDNKTFLAMLNHVLNVDGFYFSTTYDLTHTLQRLSNTSPEFQEMSLLERADQRFVWNGHLLRELSAQPEVHRFALPVLHGFITMHSCSINGKYFDWILISRRSCFRAGVRYYVRGIDSEGHAANFVETEQIVHYNGSKASFVQTRGSIPVFWSQRPNLKYKPLPQISKVANHMDGFQRHFDSQVIIYGKQVIINLINQKGSEKPLEQTFATMVSSLGSGMMRYIAFDFHKECKNMRWDRLSILLDQVAEMQDELSYFLVDSAGQVVANQEGVFRSNCMDCLDRTNVIQSLLARRSLQAQLQRLGVLHVGQKLEEQDEFEKIYKNAWADNANACAKQYAGTGALKTDFTRTGKRTHLGLIMDGWNSMIRYYKNNFSDGFRQDSIDLFLGNYSVDELESHSPLSVPRDWKFLALPIIMVVAFSMCIICLLMAGDTWTETLAYVLFWGVASIGTFFIILYNGKDFVDAPRLVQKEKID [SACM1L]	1.77	2.34	-0.172	50.7 °C	50.7 °C	-0.111
AFG3L2	2.84	0.443	0.107	51.8 °C	51.9 °C	-0.0792
BOD1L1	-3.05	-3.12	-0.161	56 °C	56 °C	0.0131
MADAASQVLLGSGLTILSQPLMYVKVLIQVGYEPLPPTIGRNIFGRQVCQLPGLFSYAQHIASIDGRRGLFTGLTPRLCSGVLGTVVHGKVLQHYQESDKGEELGPGNVQKEVSSSFDHVIKETTREMIARSAATLITHPFHVITLRSMVQFIGRESKYCGLCDSIITIYREEGILGFFAGLVPRLLGDILSLWLCNSLAYLVNTYALDSGVSTMNEMKSYSQAVTGFFASMLTYPFVLVSNLMAVNNCGLAGGCPPYSPIYTSWIDCWCMLQKEGNMSRGNSLFFRKVPFGKTYCCDLKMLI [MTCH2]	-2.66	-2.99	0.00924	56.6 °C	57 °C	-0.018
TPR	-1.4	0.657	-0.23	50.3 °C	50.8 °C	0.191
ZC3H13	0.124	2.39	-0.595	49.5 °C	50.7 °C	0.414
MSSRKLSGPKGRRLSIHVVTWNVASAAPPLDLSDLLQLNNRNLNLDIYVIGLQELNSGIISLLSDAAFNDSWSSFLMDVLSPLSFIKVSHVRMQGILLLVFAKYQHLPYIQILSTKSTPTGLFGYWGNKGGVNICLKLYGYYVSIINCHLPPHISNNYQRLEHFDRILEMQNCEGRDIPNILDHDLIIWFGDMNFRIEDFGLHFVRESIKNRCYGGLWEKDQLSIAKKHDPLLREFQEGRLLFPPTYKFDRNSNDYDTSEKKRKPAWTDRILWRLKRQPCAGPDTPIPPASHFSLSLRGYSSHMTYGISDHKPVSGTFDLELKPLVSAPLIVLMPEDLWTVENDMMVSYSSTSDFPSSPWDWIGLYKVGLRDVNDYVSYAWVGDSKVSCSDNLNQVYIDISNIPTTEDEFLLCYYSNSLRSVVGISRPFQIPPGSLREDPLGEAQPQI [INPP5K]	-0.0552	0.149	-0.384		51.8 °C	-0.0846
MATATEQWVLVEMVQALYEAPAYHLILEGILILWIIRLLFSKTYKLQERSDLTVKEKEELIEEWQPEPLVPPVPKDHPALNYNIVSGPPSHKTVVNGKECINFASFNFLGLLDNPRVKAAALASLKKYGVGTCGPRGFYGTFDVHLDLEDRLAKFMKTEEAIIYSYGFATIASAIPAYSKRGDIVFVDRAACFAIQKGLQASRSDIKLFKHNDMADLERLLKEQEIEDQKNPRKARVTRRFIVVEGLYMNTGTICPLPELVKLKYKYKARIFLEESLSFGVLGEHGRGVTEHYGINIDDIDLISANMENALASIGGFCCGRSFVIDHQRLSGQGYCFSASLPPLLAAAAIEALNIMEENPGIFAVLKEKCGQIHKALQGISGLKVVGESLSPAFHLQLEESTGSREQDVRLLQEIVDQCMNRSIALTQARYLEKEEKCLPPPSIRVVVTVEQTEEELERAASTIKEVAQAVLL [SPTLC1]	0.272	-0.0699	-0.0163	51.5 °C	52 °C	-0.06
MSKSKDDAPHELESQFILRLPPEYASTVRRAVQSGHVNLKDRLTIELHPDGRHGIVRVDRVPLASKLVDLPCVMESLKTIDKKTFYKTADICQMLVSTVDGDLYPPVEEPVASTDPKASKKKDKDKEKKFIWNHGITLPLKNVRKRRFRKTAKKKYIESPDVEKEVKRLLSTDAEAVSTRWEIIAEDETKEAENQGLDISSPGMSGHRQGHDSLEHDELREIFNDLSSSSEDEDETQHQDEEDINIIDTEEDLERQLQDKLNESDEQHQENEGTNQLVMGIQKQIDNMKGKLQETQDRAKRQEDLIMKVENLALKNRFQAVLDELKQKEDREKEQLSSLQEELESLLEK [TAF7]	1.09	3.64	0.55	52 °C	51.6 °C	0.081
MLLLTRSPTAWHRLSQLKPRVLPGTLGGQALHLRSWLLSRQGPAETGGQGQPQGPGLRTRLLITGLFGAGLGGAWLALRAEKERLQQQKRTEALRQAAVGQGDFHLLDHRGRARCKADFRGQWVLMYFGFTHCPDICPDELEKLVQVVRQLEAEPGLPPVQPVFITVDPERDDVEAMARYVQDFHPRLLGLTGSTKQVAQASHSYRVYYNAGPKDEDQDYIVDHSIAIYLLNPDGLFTDYYGRSRSAEQISDSVRRHMAAFRSVLS [SCO2]	1.37	1.52	0.334	50.5 °C	51.5 °C	-0.127
MAATASAGAGGIDGKPRTSPKSVKFLFGGLAGMGATVFVQPLDLVKNRMQLSGEGAKTREYKTSFHALTSILKAEGLRGIYTGLSAGLLRQATYTTTRLGIYTVLFERLTGADGTPPGFLLKAVIGMTAGATGAFVGTPAEVALIRMTADGRLPADQRRGYKNVFNALIRITREEGVLTLWRGCIPTMARAVVVNAAQLASYSQSKQFLLDSGYFSDNILCHFCASMISGLVTTAASMPVDIAKTRIQNMRMIDGKPEYKNGLDVLFKVVRYEGFFSLWKGFTPYYARLGPHTVLTFIFLEQMNKAYKRLFLSG [SLC25A11]	-1.46	-2.54	-0.0956	59.1 °C	59.8 °C	-0.187
MGLLLMILASAVLGSFLTLLAQFFLLYRRQPEPPADEAARAGEGFRYIKPVPGLLLREYLYGGGRDEEPSGAAPEGGATPTAAPETPAPPTRETCYFLNATILFLFRELRDTALTRRWVTKKIKVEFEELLQTKTAGRLLEGLSLRDVFLGETVPFIKTIRLVRPVVPSATGEPDGPEGEALPAACPEELAFEAEVEYNGGFHLAIDVDLVFGKSAYLFVKLSRVVGRLRLVFTRVPFTHWFFSFVEDPLIDFEVRSQFEGRPMPQLTSIIVNQLKKIIKRKHTLPNYKIRFKPFFPYQTLQGFEEDEEHIHIQQWALTEGRLKVTLLECSRLLIFGSYDREANVHCTLELSSSVWEEKQRSSIKTVELIKGNLQSVGLTLRLVQSTDGYAGHVIIETVAPNSPAAIADLQRGDRLIAIGGVKITSTLQVLKLIKQAGDRVLVYYERPVGQSNQGAVLQDNFGQLEENFLSSSCQSGYEEEAAGLTVDTESRELDSEFEDLASDVRAQNEFKDEAQSLSHSPKRVPTTLSIKPLGAISPVLNRKLAVGSHPLPPKIQSKDGNKPPPLKTSEITDPAQVSKPTQGSAFKPPVPPRPQAKVPLPSADAPNQAEPDVLVEKPEKVVPPPLVDKSAEKQAKNVDAIDDAAAPKQFLAKQEVAKDVTSETSCPTKDSSDDRQTWESSEILYRNKLGKWTRTRASCLFDIEACHRYLNIALWCRDPFKLGGLICLGHVSLKLEDVALGCLATSNTEYLSKLRLEAPSPKAIVTRTALRNLSMQKGFNDKFCYGDITIHFKYLKEGESDHHVVTNVEKEKEPHLVEEVSVLPKEEQFVGQMGLTENKHSFQDTQFQNPTWCDYCKKKVWTKAASQCMFCAYVCHKKCQEKCLAETSVCGATDRRIDRTLKNLRLEGQETLLGLPPRVDAEASKSVNKTTGLTRHIINTSSRLLNLRQVSKTRLSEPGTDLVEPSPKHTPNTSDNEGSDTEVCGPNSPSKRGNSTGIKLVRKEGGLDDSVFIAVKEIGRDLYRGLPTEERIQKLEFMLDKLQNEIDQELEHNNSLVREEKETTDTRKKSLLSAALAKSGERLQALTLLMIHYRAGIEDIETLESLSLDQHSKKISKYTDDTEEDLDNEISQLIDSQPFSSISDDLFGPSESV [PDZD8]	-1.18	-0.643	-0.312	51.8 °C	52.2 °C	-0.0986
MAELSEEALLSVLPTIRVPKAGDRVHKDECAFSFDTPESEGGLYICMNTFLGFGKQYVERHFNKTGQRVYLHLRRTRRPKEEDPATGTGDPPRKKPTRLAIGVEGGFDLSEEKFELDEDVKIVILPDYLEIARDGLGGLPDIVRDRVTSAVEALLSADSASRKQEVQAWDGEVRQVSKHAFSLKQLDNPARIPPCGWKCSKCDMRENLWLNLTDGSILCGRRYFDGSGGNNHAVEHYRETGYPLAVKLGTITPDGADVYSYDEDDMVLDPSLAEHLSHFGIDMLKMQKTDKTMTELEIDMNQRIGEWELIQESGVPLKPLFGPGYTGIRNLGNSCYLNSVVQVLFSIPDFQRKYVDKLEKIFQNAPTDPTQDFSTQVAKLGHGLLSGEYSKPVPESGDGERVPEQKEVQDGIAPRMFKALIGKGHPEFSTNRQQDAQEFFLHLINMVERNCRSSENPNEVFRFLVEEKIKCLATEKVKYTQRVDYIMQLPVPMDAALNKEELLEYEEKKRQAEEEKMALPELVRAQVPFSSCLEAYGAPEQVDDFWSTALQAKSVAVKTTRFASFPDYLVIQIKKFTFGLDWVPKKLDVSIEMPEELDISQLRGTGLQPGEEELPDIAPPLVTPDEPKGSLGFYGNEDEDSFCSPHFSSPTSPMLDESVIIQLVEMGFPMDACRKAVYYTGNSGAEAAMNWVMSHMDDPDFANPLILPGSSGPGSTSAAADPPPEDCVTTIVSMGFSRDQALKALRATNNSLERAVDWIFSHIDDLDAEAAMDISEGRSAADSISESVPVGPKVRDGPGKYQLFAFISHMGTSTMCGHYVCHIKKEGRWVIYNDQKVCASEKPPKDLGYIYFYQRVAS [USP5]	0.203	0.183	0.218	52 °C	51.9 °C	-0.139
TSR3	0.927	-0.253	0.0751	54.3 °C	54.3 °C	-0.12
MKKAEMGRFSISPDEDSSSYSSNSDFNYSYPTKQAALKSHYADVDPENQNFLLESNLGKKKYETEFHPGTTSFGMSVFNLSNAIVGSGILGLSYAMANTGIALFIILLTFVSIFSLYSVHLLLKTANEGGSLLYEQLGYKAFGLVGKLAASGSITMQNIGAMSSYLFIVKYELPLVIQALTNIEDKTGLWYLNGNYLVLLVSLVVILPLSLFRNLGYLGYTSGLSLLCMVFFLIVVICKKFQVPCPVEAALIINETINTTLTQPTALVPALSHNVTENDSCRPHYFIFNSQTVYAVPILIFSFVCHPAVLPIYEELKDRSRRRMMNVSKISFFAMFLMYLLAALFGYLTFYEHVESELLHTYSSILGTDILLLIVRLAVLMAVTLTVPVVIFPIRSSVTHLLCASKDFSWWRHSLITVSILAFTNLLVIFVPTIRDIFGFIGASAASMLIFILPSAFYIKLVKKEPMKSVQKIGALFFLLSGVLVMTGSMALIVLDWVHNAPGGGH [SLC38A2]	-0.691	-0.748	0.157	57.5 °C	57.6 °C	-0.301
